From patent US20200299380A1 (published 2020)

T1: MICA*001-BirA (human, UniProt Q29983 24-297)
T1 construct: also called MICA-BirA; MICA*01-BirA; not shown: BirA tag
T1 sequence: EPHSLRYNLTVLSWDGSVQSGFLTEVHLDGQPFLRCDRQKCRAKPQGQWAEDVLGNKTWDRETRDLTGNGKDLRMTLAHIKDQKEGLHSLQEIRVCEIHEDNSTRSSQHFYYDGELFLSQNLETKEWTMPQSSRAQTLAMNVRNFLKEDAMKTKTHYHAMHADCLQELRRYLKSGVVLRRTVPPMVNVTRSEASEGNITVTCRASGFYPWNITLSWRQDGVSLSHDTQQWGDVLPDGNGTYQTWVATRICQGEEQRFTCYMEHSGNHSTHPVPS

T2: human ULBP-3-Fc (R&D systems) (human, UniProt Q9BZM4 30-217, limits assumed)
T2 construct: Bought; not shown: Fc of the bought fusion protein
T2 sequence (looked up): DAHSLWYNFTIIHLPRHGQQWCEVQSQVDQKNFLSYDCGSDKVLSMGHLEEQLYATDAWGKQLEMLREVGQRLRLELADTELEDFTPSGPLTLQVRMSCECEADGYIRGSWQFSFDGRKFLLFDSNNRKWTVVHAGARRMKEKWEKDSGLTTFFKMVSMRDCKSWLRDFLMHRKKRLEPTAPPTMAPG

T3: MICA*004 expressed at the cell surface (human, UniProt Q29983 24-297)
T3 construct: also called C1R-MICA*004; C1R-MICA*04
T3 chain: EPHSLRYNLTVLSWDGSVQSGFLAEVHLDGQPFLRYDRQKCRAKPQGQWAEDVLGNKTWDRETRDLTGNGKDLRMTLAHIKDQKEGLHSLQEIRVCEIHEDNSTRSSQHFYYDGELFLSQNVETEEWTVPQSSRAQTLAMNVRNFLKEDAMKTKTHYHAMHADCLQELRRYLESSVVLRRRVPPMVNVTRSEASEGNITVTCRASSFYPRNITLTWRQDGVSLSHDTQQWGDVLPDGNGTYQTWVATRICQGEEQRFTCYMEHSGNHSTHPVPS

T4: MICA*001 expressed at the cell surface (human, UniProt Q29983 24-297)
T4 construct: the protein on cells also has its transmembrane and cytoplasmic parts (Genbank AAB41060); also called C1R-MICA*001; C1R-MICA*01
T4 sequence: T1 sequence

T5: human ULBP-2-Fc (R&D systems) (human, UniProt Q9BZM5 26-217, limits assumed)
T5 construct: Bought; not shown: Fc of the bought fusion protein
T5 sequence (looked up): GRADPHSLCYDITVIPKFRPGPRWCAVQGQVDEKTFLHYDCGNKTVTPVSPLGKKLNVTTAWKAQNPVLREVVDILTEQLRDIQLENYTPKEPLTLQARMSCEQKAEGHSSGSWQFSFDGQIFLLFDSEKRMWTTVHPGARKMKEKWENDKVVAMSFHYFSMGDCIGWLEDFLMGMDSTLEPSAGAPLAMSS

B1: CHG1-M-MIA-16A8 (antibody, V domains shown)
VH: EVQLVESGGGLVKPGGSLKLSCAASGFTFSRYAMSWVRQTPEKRLEWVATIFSGGSYTYYPDSVKGRFTISRDNANNTLYLQMSSLKAEDTAMYFCARPNWERTFDYWGQGTTLTVSS
VL: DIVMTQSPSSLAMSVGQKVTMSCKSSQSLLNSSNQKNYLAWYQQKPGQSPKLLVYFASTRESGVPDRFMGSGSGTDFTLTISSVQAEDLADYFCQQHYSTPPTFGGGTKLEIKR
notes: also called CHG1-M-MIA2-16A8; chimeric anti-MICA 16A8
B2: CHG1-M-MIA-6E4 (antibody, V domains shown)
VH: EVQLVESGGALVKPGGSLKLSCAASGFTFSYYAMSWVRQTPEKRLEWVATISRGGNYIYYTDSVKGRFTISRDNAKNTLYLQMTSLRSEDTAMFYCASISDYDGAWLAYWGQGTTLTVSS
VL: DVLMTQTPLSLPVSLGDQASISCRSSQSIIHTNGNTYLEWYLQKPGQSPKLLIYKISNRFSGVPDRFSGSGSGTDFTLKISRVEAEDLGVYYCFQGSHVPWTFGGGTKLEIKR
notes: also called chimeric anti-MICA 6E4
B3: CHG1-M-MIA-20C6 (antibody, V domains shown)
VH: QITLKESGPGILKPSQTLSLTCSFSGFSLSTSGMGVGWIRQPSGKGLEWLAHIWWDDDKYYNPSLKSQLTISKDTSRNQVFLRITSVDTADTATYYCARRTQGYFDYWGQGTTLTVSS
VL: DIVMTQSPATLSVTPGDRVSLSCRASQSISDYLHWYQQKSHESPRLLIKYASQSISGIPSRFSGSGSGSDFTLSINSVEPEDVGVYYCQNGHSFPWTFGGGTKLEIKR
notes: also called chimeric anti-MICA 20C6

These binders were tested against T1, MICA*001-BirA (assay: SPR single cycle kinetics, monovalent mean KD at pH 7.4, antibody captured on Protein-G chip, MICA-BirA injected).
Description: For monovalent affinity measurement, chimeric anti-MICA antibodies were captured onto a Protein-G chip.
Affinities were determined using single cycle kinetics (SCK). SCK cycles were as follows: Successive 120s injections at 30 μl/min of 5 serial dilutions (0.01 to 100 nM) of MICA-His or MICA-BirA in ascending order (or of buffer for the blank injections to be subtracted during the analysis). After the last concentration is injected, complex is left to dissociate for 600s before regeneration by a 10s injection of appropriate regeneration buffer at 40 μl/min. After the regeneration, chip is left to stabilise for 60s in running buffer. Curves are fitted using Biacore T100 Evaluation software.

Row | Kd [µM] | Binder
1 | 0.0115 | B1
2 | 0.0089 | B2
3 | 0.04 | B3

These binders were tested against T2, human ULBP-3-Fc (R&D systems) (assay: SPR, antibody injected over immobilized ULBP-3-Fc).
Description: (§1) For cross-binding study, the human ULBP-1-Fc (R&D systems*), MICB-Fc (*), ULBP-2-Fc (*) and ULBP-3-Fc (*) recombinant proteins were covalently immobilized respectively on the flow cell one to four of a CM5 sensorchip. Anti-MICA antibodies (at a constant concentration of 10 μg/ml) were injected for 2 minutes at a flow rate of 10 μl/min onto the four flow cells in parallel. After each cycle, Sensorchip was regenerated by a five second injection of appropriate regeneration buffer.

Row | binding result | Binder
4 | no binding (tested: 10 µg/ml) | B1
5 | no binding (tested: 10 µg/ml) | B2
6 | no binding (tested: 10 µg/ml) | B3

Molecular target: T3, MICA*004 expressed at the cell surface
Assay: flow cytometry on C1R transfectant cells, 4-parameter logistic fit
Description: (§2) The binding of antibodies obtained from the first, second and third immunization series (including CHG1-M-MIA-19E9, CHG1-M-MIA-9C10, CHG1-M-MIA-6E4, CHG1-M-MIA-20C6, CHG1-M-MIA-16A8, CHG1-M-MIA-12A10, CHG1-M-MIA-10A7, CHG1-M-MIA-18E8, CHG1-M-MIA-10F3, CHG1-M-MIA-15F9 and CHG1-M-MIA-14B4) were tested for binding to MICA-expressing CR1 transfectant cells C1R-MICA*001, C1R-MICA*004, C1R-MICA*007 and C1R-MICA*008 (Pr. A. Steinle, Eberhard-Karls University Tuebingen, Germany) described in Salih et al. (2003) Blood 102(4): […]. Binding was analyzed by flow cytometry.
(§3) Cells were harvested and stained in PBS 1×/BSA 0.2%/EDTA 2 mM buffer during 30 minutes at 4° C. using a dose-range of the anti-MICA mAbs. After two washes in staining buffer, cells were stained for 30 min at 4° C. with mouse anti-human IgG1-PE monoclonal antibodies (1/11). After two washes, stainings were acquired on a BD FACS Canto II and analyzed using the FlowJo software.
(§4) Antibodies CHG1-M-MIA-19E9, CHG1-M-MIA-9C10, CHG1-M-MIA-6E4, CHG1-M-MIA-20C6, CHG1-M-MIA-12A10, CHG1-M-MIA-10A7, CHG1-M-MIA-18E8, CHG1-M-MIA-10F3, and CHG1-M-MIA-15F9 bound to each of the C1R-MICA*001, C1R-MICA*004, C1R-MICA*007 and C1R-MICA*008 cells (see FIG. 1A for antibodies CHG1-M-MIA-19E9, CHG1-M-MIA-9C10, CHG1-M-MIA-6E4, CHG1-M-MIA-20C6, CHG1-M-MIA-12A10, CHG1-M-MIA-10F3, and FIG. 1B for antibodies, CHG1-M-MIA-18E8, CHG1-M-MIA-15F9, CHG1-M-MIA-10A7). […] EC50 values are shown in Table C in μg/ml (calculated using a 4-parameter logistic fit).

Row | EC50 [mg/L] | Binder
7 | 0.44 | B1
8 | 2.67 | B2
9 | 0.05 | B3

What follows are binders tested against T4, MICA*001 expressed at the cell surface in the same assay as above.
Description: as §2, §3, §4

Row | EC50 [mg/L] | Binder
10 | 1.07 | B1
11 | 1.96 | B2
12 | 0.26 | B3

The binders below were run against T5, human ULBP-2-Fc (R&D systems) (assay: SPR, antibody injected over immobilized ULBP-2-Fc).
Description: as §1

Row | binding result | Binder
13 | no binding (tested: 10 µg/ml) | B1
14 | no binding (tested: 10 µg/ml) | B2
15 | no binding (tested: 10 µg/ml) | B3
